One assay relates to rat hippocampal slices. Briefly: Long-term potentiation (LTP) in rat hippocampal slices, theta burst stimulation. The conditions noted are these: after TBS, n=4. The protocol:
Since agintonin induces NMDA receptor activation as confirmed above, an examination was made of the effect of gintonin on LTP induction in rat hippocampal slices (Moon et al., Neursci. Lett. 466, 114-119, 2009; Lee et al., J Neurosci. Res. 89, 96-107, 2011). In this regard, LTP induction was studied after treatment with three different concentrations of gintonin (0.1, 1, and 10 μg/ml).
Male rats 3-5 weeks old (Sprague-Dawley strain) (Charls River, U.S.A.) were quickly sacrificed by cervical dislocation without using an anesthetic (Steidl et al., Brain Res. 1096, 70-84, 2006). With the aid of a rongeur (Fine Science Tools Inc., USA), the cranium was removed, and the brain was excised, immediately cooled in ice, and immersed in artificial cerebrospinal fluid (saCSF) containing oxygen-saturated (95% O2/5% CO2) sucrose (composition mM: Sucrose 248, NaHCO3 26, glucose 10, KCl 3, CaCl2 2, MgCl2 1, HEPES 10, pH7.4).
The hippocampus was sectioned into 400 μm slices using vibratome (MA752 motorised advance vibroslice; Campden inc.) and the hippocampal slices were stabilized in artificial cerebrospinal fluid (aCSF) (composition mM: […], NaHCO326, Glucose 10, KCl 3, CaCl2 2, MgCl2 1, HEPES 10, pH 7.4) for 1 hr (Lelong and Rebel, J Pharmacol Toxicol Methods. 39, 203-210, 1998).
OHSCs were incubated according to the Stoppini method (Stoppini et al., J Neurosci Methods 37, 173-182, 1991), and all procedures were conducted on a sterilized bench.
Immediately after excision from the cranium, the rat brain was immersed in an ice-cold HBSS-medium (LB 003-01, Sigma, St. Louis, Mo., USA), and the hippocampus was separated and sectioned at a thickness of 400 μm using a tissue chopper (Mickle Laboratory Engineering Co., Surrey, UK). The hippocampal slices were placed on a membrane insert (polytetrafluorethlene membranes, 0.4 μm Millicell-CM, Millipore Co., Bedford, Mass., USA), and immersed in a culture medium. […]

For assay [1], the target named is T1, mutant R3.28A LPA3 receptor (Homo sapiens, UniProt Q9UBY5, R105A).
T1 construct: expressed in transfected cells; host or cells: B103 rat neuroblastoma cells
T1 sequence (Q9UBY5 1-353 R105A): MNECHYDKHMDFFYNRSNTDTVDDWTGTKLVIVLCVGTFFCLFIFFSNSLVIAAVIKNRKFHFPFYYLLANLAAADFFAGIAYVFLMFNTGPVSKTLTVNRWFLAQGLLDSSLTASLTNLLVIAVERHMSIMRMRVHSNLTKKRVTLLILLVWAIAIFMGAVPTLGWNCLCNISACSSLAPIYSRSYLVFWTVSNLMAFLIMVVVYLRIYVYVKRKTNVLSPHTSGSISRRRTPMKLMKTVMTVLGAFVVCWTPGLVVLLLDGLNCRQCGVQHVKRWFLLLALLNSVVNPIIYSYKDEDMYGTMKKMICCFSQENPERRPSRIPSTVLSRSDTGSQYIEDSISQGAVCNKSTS
Kind of assay: Intracellular Ca2+ in B103 cells with mutant R3.28A LPA3 receptor. The class given is cell-based. The conditions noted are these: R3.28A LPA3 receptor-transfected B103 cells. An excerpt: That is, LPA receptors have specific amino acid residues, known as binding sites, which are responsible for interaction with LPA, and the binding of LPA to the specific amino acids starts to exert the function. This Example was configured to examine a change in the gintonin-induced intracellular calcium increase through LPA receptor activation in LPA3 receptor-expressing cells when specific amino acids of the LPA binding site in LPA receptors were mutated.
To this end, a mutant LPA receptor in which Arg3.28, known as a common LPA binding site of LPA1-LPA3 receptors, was mutated as Arg3.28Ala (that is, Arg is substituted by Ala; R3.28A) or Trp4.64, known as an LPA-binding site of LPA3 receptor was mutated as Trp4.64Ala (that is, Tip is substituted by Ala; W4.64A) (Valentine et al., J. Biol. Chem. 283, 12175-12187, 2008) was transfected to B103 cells which were then tested for the action of gintonin, in comparison with cells transfected with the wild-type. […] From the result, it is henceforth understood that the gintonin-triggered LPA receptor activation is achieved by interaction with the LPA binding sites of LPA receptors and that gintonin occupies the LPA binding sites to activate LPA receptors.

Results on 1 molecule are retold here after patent US20140234868A1, “USE FOR GLYCOLIPOPROTEIN GINTONIN, ISOLATED AND IDENTIFIED FROM GINSENG, AS A NATURAL MEDICAL-PLANT DERIVED LIGAND” (KONKUK UNIVERSITY INDUSTRIAL COOPERATION CORP., priority 2011, published 2014).

B1: gintonin: ginseng-derived glycolipoprotein; structural protein of ginseng major latex-like protein (MLP151) and ribonuclease-like storage proteins; crude gintonin used in tests (protein)
chain 1: MGLTGKLICQTGIKSDGDVFHELFGTRPHHVPNITPANIQGCDLHEGEFGKVGSVVIWNYSIDGNAMIAKEEIVAIDEEDKSVTFKVVEGHLFEEFKSIVFSVHVDTKGEDNLVTWSIDYEKLNESVKDPTSYLDFLLSVTRDIEAHHLPK
chain 2: RSDYPWAMFALRLQWPAGFCEVNNACDTKSLLNTFTIHGLYPYNAKGTPALYCDGTAFDVNSVSDFLAEMHLAWPSHETNTEDIQFWEHEWKKHGRCSEALLKQTDYFRTALAFRKAFDIVGLLNQEGIYPNNDLYRPKMIKEAIKKHLNAVPEIDFTKNENSEYVLTDINVCVNQQATRFVDCPTDDATDDYRLKFVRLPSKMKFADPRTNSII
On to B1, for which the “total field excitatory postsynaptic potentials (total fEPSPs)” value in the assay with rat hippocampal slices (gintonin 0.1 μg/ml) is given as 180.90±7.53%; in the assay with rat hippocampal slices (gintonin 1 μg/ml), 205.32±6.40%; in the assay with rat hippocampal slices (gintonin 10 μg/ml), 214.14±11.55%. Besides, the “gintonin-induced intracellular calcium increase vs wild-type” value in assay [1] is “greatly reduced”.
